In patent publication US20050181362A1 (published 2005):

B1: TIF2 732-756 peptide (peptide)
peptide: QEPVSPKKKENALLRYLLDKDDTKD
notes: Free peptide used in solution for the stability study and for co-crystallization; No biotin is mentioned for these uses; also called TIF2 peptide; TIF2 fragment
B2: GR LBD (F602S) 521-777 (receptor)
chain: GSVPATLPQLTPTLVSLLEVIEPEVLYAGYDSSVPDSTWRIMTTLNMLGGRQVIAAVKWAKAIPGFRNLHLDDQMTLLQYSWMSLMAFALGWRSYRQSSANLLCFAPDLIINEQRMTLPCMYDQCKHMLYVSSELHRLQVSYEEYLCMKTLLLLSSVPKDGLKSQELFDEIRMTYIKELGKAIVKREGNSSQNWQRFYQLTKLLDSMHEVVENLLNYCFQTFLDKTMSIEFPEMLAEIITNQIPKYSNGNIKKLLFHQK
notes: also called GR(521-777) F602S; cleaved GR LBD

What was measured:
[1] = target: B2; assay: co-crystallization
Method: The GR/TIF2/DEX crystals were grown at room temperature in hanging drops containing 3.0 ul of the above protein-ligand solutions, and 0.5 ul of well buffer (50 mM HEPES, pH 7.5-8.5 (preferred pH range is 8.0 to 8.5), and 1.7-2.3M ammonium formate). Crystals were also obtained with mixing of the above protein solution and the well buffer at various volume ratios. Crystals appeared overnight and continously grew to a size up to 300 micron within a week. Before data collection, crystals were transiently mixed with the well buffer that contained an additional 25% glycerol, and were then flash frozen in liquid nitrogen.

[2] = target: the molecule itself; assay: X-ray crystal structure

binding result [1]	Binder	binding result [2]
binds	B1	–
–	B2	binds
